Assay results reported in the DeepSol protein solubility set.

Experiment: soluble on expression in E. coli; label from the status in PepcDB or PDB records

| Sequence | soluble on expression in E. coli |
| --- | --- |
| MSLTVMSIQDNLTINEKKVLLALEELRSAVPDKLEEKSGLQIDAAMQAAFMLQEKELASVSEKVLERYSLTKEGEEYKKTGLPERQIIDALKNPVSLEELRSCFSPQTVGIATGWLVKKGWAKVENGIMVPSGEASEGKDEKALSAFAGKAKTLEELGADEGTVKDLLKRKLVVKHEEKFRTVSITDAGSELASQGLVLEEEIAQLTPELLKSGAWKEKKFRPYRLDITPKPLYGTKIHPYRRLIEQMRQIFLEMGFTEIKGGIIQSSFWNFDALFQPQDHPARDMQDTFHLGSTCQIPAEYSGKVAAMHENGGDIDSCGWGGIWDRELAGRNVLRTHTTSVTIKYLADNPEPPVKAFCIDRAYRRETIDPTHTPEFEQLEGVVMDKDMSFADLLGLLAEFYHRMGFEEVRFRPGYFPYTEPSVEPEVYVDGLGWVELGGAGVFRKEVTEPLGIKAPVLAWGLGVSRLAMLKLGLKDLRLLYQSDIDWLRKSEVCKEGHHHHHH | soluble |
| MGIIERIKEIEAEMARTQKNKATEYHLGQLKAKIAKLRTQLLEPPKGASGGGEGFEVTKYGHGRVALIGFPSVGKSTLLTMLTGTHSEAASYEFTTLTCIPGVIHYNDTKIQLLDLPGIIEGASEGKGRGRQVIAVAKSSDLVLMVLDASKSEGHRQILTKELEAVGLRLNKTPPQIYFKKKKTGGISFNTTAPLTHIDEKLCYQILHEYKIHNAEVLFRENATVDDFIDVIEGNRKYIKCVYVYNKIDVVGIDDVDRLSRQPNSIVISCNLKLNLDRLLARMWDEMGLVRVYSKPQGQQPDFDEPFVLSSDRGGCTVEDFCNHVHRTLVKDMKYALVWGTSTRHNPQNCGLSQHLEDEDVVQIVKKKERDEGGRGRFKSHSNAPARIADREKKAPLKQ | soluble |
| MGSDKIHHHHHHAQNGNVLGQVIRLPKSKGNIYQLLGLVTERSGYLFIYDSKIIDNEQTTSIKGGDYTIQEAIYAITGNKNLAIRAIENHLLLYLPESPSAPKSASVTPDSIQTYFSIEGSLQDQYTHEPIAFGSVGIGEAAIGTITNQNGEFRLKLPDSLRLSKVRFSHIGYLPQEIDSRELIDKHTVLSLEPKVISIQEVIVRLTNPKRLLQEMLDKRRSNYSQHPIYLTTFYREGVERKKGLVGLTEAVFKVYKASYHSNALADQVKLLKMRRISNEQEKDTLITKMKSGIYSCLVLDLMKQLPEFLDPSPDSPYTYAHTDITVVDDRLANVISFEQRKSINEPLYRGQIYIDMENNALLRVDFEVNPQYIEQAAGMFVERKSRNLRITPQKVAYTVSYKQWNGTYYINHIRGDLHFKIKKRRQLFNTNILHTWFEMVTCKIDTANVNRFSRIESLPTRTVFSDTHFNYDEGFWGDFNVILPEDKLNEAISRITSKIEETNY | not soluble |
| MPSNTSIRSNSNAIKARAPASAPKRPTSAEYVKKYTEYLATGHQIRHALQRLYDLNCSIQVFEECLTEKVILQKYTGQSEYQYPVTLLMNKFDDLRKREIRVANEKWSKNGELSAAMFTNKMVMEQRMKDLEKMDQKTANNLFVAALGDSCFIPKKKVDYSKFKITKRSKSSTSTSPSSSSSETSSPIA | not soluble |
| MEKKIGKLSIRVLLNTHRRNDCEIYPLIIRVVYHRRKSEYSLGWKIHTSNFSADRERVVYSSTGNLKRKDLGLINDAISQERERLLKIFAFLQQNMPGFSLSQLMDKYRMERNLRYVDAFIVREIERLRQEGRSGTAGLYLSGLYSLRRFLRGQKITFRELTYCFLTDYIHFLRMRGISENTVNMYIRNLRAVYNKAQKQGINMGCESPFRELKLQTQETAKRALCKHDIARIVSVDLSSEPLLDRARDLFMFSFYARGMPFVDIVFLKHDSIINGIIYYERNKTGQRMQVRVIPPLAALIEKYRSSYPYVLPYITSFSDRTSYMQYRYALGNVNRLLKRLGRRLHLPLVLTTYVARHSWATIAKEEGFSIASISEGLGHTSEATTQIYLQSFNSEVIDKINEQVVASIGRHI | not soluble |
| MKTLLQTTLKLLVASSLVLGMTASTLMAETKSKFQVAWTIYVGWMPWDYAAQSGILDKWAKKYGIEIEMVQVNDYVESINQYTAGKFDGCVMTNMDALTIPAAGGVNSTALIAGDFSNGNDGIILKGKKRLSEIKGQKVNLMELSVSHYLLARGLESVGLSERDVSVVNTSDADIVAAYSTKEVSALVTWNPQLSEVKSMKGANLVFDSSQIPGEIIDLMVLNTQTLKENPNLGKALTGAWFEVLALMKKGDLTALSAMAKASGTDLAGYKKQLESTKMFYEASEAVKFITSAELPETMKKVSEFSFEHGILGEGASSAAFVGMEFPGGKSFGDPKNLKLRFIDTYVKMAAEGKL | not soluble |
| MSLDDESYEEEHKRMVLKIHQEFWDLPTNYQEKPLVFGSQAKNRYKTILPNEHSRVILEPERSPAAGGEPYINANYIKGPDYANNSYIATQGPLPNTIYEFWLMVYQNVVRTATVAGRSCASAGLEQKIVMLTNFVENGRQKCAIYFPQTADEWVAFGSGADIDVGEMLREKDTITASIAAAEQQPEGQEAVGGVCQPVTVRVPCASCFFLVHNVAVEQRNGYTVRTLNVIYGAKVSDADAPDGDGSRALFELTQFRAHHYWFPDWPDHRSPKDINVLLDLSLDVLGSNVVDTPRPESSNSLKGNQPGTPGLEEVMGAAQLAALSSSCTPTVLPIVHSSAGIGRTGCLIAILNGLRQLRLSVMAHQRKQQQLKQSQAQTGEAGQGELHGSEGRRKSTVQMDGATLLAPNAAVGRGGQREGSAVVRESGQVDILGIVCNLRLQRGGMVQNSEQYELIHRALCLYLEKLTQDGQEGHHHHHH | soluble |
| MLLDKIQNLIIQSDISIFQSMKKMDEEKVKLLFVFRGDCFVGILTIGDIQRAIIKQNDTSMQINNILDQNKVFAYKGESLEIIKNKMIHLRAECMPILDSKGELVDVLFWKDLFIDEVRVDDRKIDLPVVIMAGGKGTRLKPLTNVIPKPLIPIGDKTILEAILDQFESIGCSKFYMSVNYKYDILKFYLAQLDHKYDIRFFKEDKPLGTIGSVSLLKDKISTPFFVSNCDIIIDQDYRDVYDYHINNSNDLTIVTAVKRTRIPYGVIETIENGLMTELIEKPEFTYMINSGVYILQPELINEIPENELFHITHLMEKVKSRGGKIGCFPVSEKSWTDIGEWNEYLKLLGILEHHHHHH | not soluble |
| TLSRDDAAQVAKVLSEALPYIRRFVGKTLVIKYGGNAMESEELKAGFARDVVLMKAVGINPVVVHGGGPQIGDLLKRLSIESHFIDGMRVTDAATMDVVEMVLGGQVNKDIVNLINRHGGSAIGLTGKDAELIRAKKLTVTRQTPEMTKPEIIDIGHVGEVTGVNVGLLNMLVKGDFIPVIAPIGVGSNGESYNINADLVAGKVAEALKAEKLMLLTNIAGLMDKQGQVLTGLSTEQVNELIADGTIYGGMLPKIRCALEAVQGGVTSAHIIDGRVPNAVLLEIFTDSGVGTLISNRKRH | soluble |
| MSLKIAIVNDMPMAVEALRRALAFDPSHEVVWVATNGAEAVKYCAELTPDLILMDLIMPVMDGVEATRRIMAESPCAIVIVTVDRQQNVHRVFEAMGHGALDVVDTPALGAGNAQEAAAPLLRKILNIGWLIGQRGSRVRSAPQPLRSGAPRQSLVAIGSSAGGPAALEVLLKGLPKDFAAAIVLVQHVDQVFAAGMAEWLSSASGLEVRLAREGEPPQSGKVLLAGTNHHIRLLKNGTLAYTAEPVNEIYRPSIDVFFESVASFWNGDAVGVLLTGMGRDGAQGLKLMRDQGYLTIAQDQNSSAVYGMPKAAAAIGAASEIRPLDKIAPRLLEIFAKEGHHHHHH | soluble |
| MGSDKIHHHHHHMVMIQLCEWQQQGQFLSINDQQIFTRQAGDRKAPALLLIHGYPSASWDWEGMWHELTQHYFVVTLDMLGFGFSDKPKNVDYLISQQADIYEAVLQQFGVSHYHILAHDYGDTVAQELLARQLDGNSTLSINSVCFLNGGLFPETHKPLLIQTLLLSPLGPLVSKLINKQKFAVNLQRIFGPSTPPTPQVIDALWQLLNHNNGLAVMHKLINYITQRKQHRERWVGAIINSTIPIKLIAGVKDPISGQHMIDHYRKLIPHADVTELPTLGHYPQVEDANAIIAAYLQFRLNRT | not soluble |
| MSIYEFDSEEEYATFVNWIEAKKPSITDCSIETFNDDLEDFDRLDEDGLYIEYTRVLLDNLNVTKSMDLMIPTHSSFEFSQDFHLDAVRLRSCFGRNNLFNFHCKEIEVSDSEISSENVNQYLRAWAAGCYNELEKLEVLFYGNENKFDWKPLLQGLNRKRTIYEHNIIDPEVTDETTEVKIETEHPGEFDYYYYKWAKIHRKVDSEGNFYMGMIVN | not soluble |
| MNLLEKTRKINAMLQKAAGRPVNFKEMAETLCEVIEANVFVVSRRGKLLGFAIKQSIENERMKRMLEERQFPEEYTKNLFNITETSPNIDINSEYTAFPVENRDLFKTGLTTIVPINGGGERLGTLILSRLDREFDNDDLILAEYGATVVGMEILREKAEEIEEEARSKAVVQMAISSLSYSELEAIEHIFEELDGTEGLLVASKIADRVGITRSVIVNALRKLESAGVIESRSLGMKGTYIKVLNDKFLSELEKLKSS | not soluble |
| GPGSMTVLRRMRLTFVGTGVSSAVPVIGHLTTDCACRDAIANPSGPNRRNNVSLLISLPFAEGKSGVEWHHVLIDCGKTFRSAYMRVLAPMRVQYVDALLITHGHADAMHCVEELCGMQAEAAARYAQSVSPSSLPSSAGRTLASAVVPRTLRRVPTFLTAPTLDQIAMVSPELVTQSFHIGAAPTTGTAYHSALAATADMTARSSSSAEVLSTVMDIFYMDDTKPQRMHVPFGPLSLAASAARGVNATDAASDLPFYSFPVEHGKGYISMAWVFGRGTAFKSRQTQQQQQGSCVVYISDVSHIPATSMAFLQDLVKIDVLVLDLLAEHGAPSASHYCADEAIPLVVALAPRRTYFVGMFCSLEHHRTNEAFARELAELKMRYRDELEVVVPGSSAPAVTDTDREKKLAFVNRVCSMELAYDGQELDMDA | not soluble |
| MDINKLKLTPDSSIKEALKIVGQERVRLGIIVDKKDKFLGVISDSNIRKALISGKTLKDSIKDIYTKNPITIKENTSKEQLLKISAKTDIYDFPVLDEKGQILSIKSISSLLKANPNSIIIMAGGLGSRLKELTKDTPKPMLKVGKKPILESIIQRLKNQNFENFIFCVNYKKQIIEDYFQKGQKFGVKISYIKERKKLGTAGALSLIKQEFKESFIVMNADILTELDFNALLKAHKKSKALMSVCVREFEQQIPYGVITQKQGFIENIEEKPTQKFLVSAGIYVLENEILNLIAKNEYLDMPELIKLVLQKGKVNTYIINDYWIDIGRPDEFLKANEDFKLEHHHHHH | soluble |
| MGSDKIHHHHHHMDRRDFFKTVAITGAAMTIQRSEAMEILTQTINKANGDKPDLVAVMGGEPEAMFRRAISELGGMKQFIKPGQKVVVKPNIGWDKVPELAGNTNPKLITEIIKQCFATGAKEVTVFDHTCDDWQKCYKNSGIEAAAKEAGAKVMPAHLESYYKPVDLPKGQKMKKAKIHEAILNCDVWINVPILKNHGGANLTISMKNHMGIVWDRGFFHQNDLQQCIADICTLEKKAVLNVVDAYRIMKTNGPRGRSASDVVLAKGLFISPDIVAVDTAAAKFFNQIREMPLDTVGHLAKGEALKVGTMDIDKLNVKRIKM | not soluble |
| SLLEIDNQTPLESDFSLLEKIAKFLAPTQIIELVLVSDETMREINRDLRGCDYVTDVLSFPLEAIPHTPLGSVVINAPLAQENALKLGHRLEEEIALLFIHGVLHLLGYDHEKDKGEQRQKESELIKAFNLPLSLIERTQD | soluble |
| MAMAVPVSARPQSPAEGFYAINNQFQTNGPKGFSEIKILANEDMFLRMDLPGVPDEGGLSVYHNRSQETVVVFAKAPKVHTHDSTERRYQTMTGIGCSCCAISSITTHMSDGVFRVILSKTRIDPHRSPCTDPALTGPVLQPHPLAFPQPTMAYESKQLPNGKLFVRADMPGVPKENFTVSVTNGRVKVTGQAPAVSHDSSGRFYSGDVAMLSTPVDIPSRRIKTIAKNGVIRLLIPPF | soluble |
